B1: Serine/threonine-protein kinase Nek9 (Homo sapiens), Q8TD19 (parent)
chain: MSVLGEYERHCDSINSDFGSESGGCGDSSPGPSASQGPRAGGGAAEQEELHYIPIRVLGRGAFGEATLYRRTEDDSLVVWKEVDLTRLSEKERRDALNEIVILALLQHDNIIAYYNHFMDNTTLLIELEYCNGGNLYDKILRQKDKLFEEEMVVWYLFQIVSAVSCIHKAGILHRDIKTLNIFLTKANLIKLGDYGLAKKLNSEYSMAETLVGTPYYMSPELCQGVKYNFKSDIWAVGCVIFELLTLKRTFDATNPLNLCVKIVQGIRAMEVDSSQYSLELIQMVHSCLDQDPEQRPTADELLDRPLLRKRRREMEEKVTLLNAPTKRPRSSTVTEAPIAVVTSRTSEVYVWGGGKSTPQKLDVIKSGCSARQVCAGNTHFAVVTVEKELYTWVNMQGGTKLHGQLGHGDKASYRQPKHVEKLQGKAIRQVSCGDDFTVCVTDEGQLYAFGSDYYGCMGVDKVAGPEVLEPMQLNFFLSNPVEQVSCGDNHVVVLTRNKEVYSWGCGEYGRLGLDSEEDYYTPQKVDVPKALIIVAVQCGCDGTFLLTQSGKVLACGLNEFNKLGLNQCMSGIINHEAYHEVPYTTSFTLAKQLSFYKIRTIAPGKTHTAAIDERGRLLTFGCNKCGQLGVGNYKKRLGINLLGGPLGGKQVIRVSCGDEFTIAATDDNHIFAWGNGGNGRLAMTPTERPHGSDICTSWPRPIFGSLHHVPDLSCRGWHTILIVEKVLNSKTIRSNSSGLSIGTVFQSSSPGGGGGGGGGEEEDSQQESETPDPSGGFRGTMEADRGMEGLISPTEAMGNSNGASSSCPGWLRKELENAEFIPMPDSPSPLSAAFSESEKDTLPYEELQGLKVASEAPLEHKPQVEASSPRLNPAVTCAGKGTPLTPPACACSSLQVEVERLQGLVLKCLAEQQKLQQENLQIFTQLQKLNKKLEGGQQVGMHSKGTQTAKEEMEMDPKPDLDSDSWCLLGTDSCRPSL

Variants of: B1
Conditions: with plk1_human PLK1, P53350
Sequence of plk1_human PLK1, P53350 (P53350 whole entry): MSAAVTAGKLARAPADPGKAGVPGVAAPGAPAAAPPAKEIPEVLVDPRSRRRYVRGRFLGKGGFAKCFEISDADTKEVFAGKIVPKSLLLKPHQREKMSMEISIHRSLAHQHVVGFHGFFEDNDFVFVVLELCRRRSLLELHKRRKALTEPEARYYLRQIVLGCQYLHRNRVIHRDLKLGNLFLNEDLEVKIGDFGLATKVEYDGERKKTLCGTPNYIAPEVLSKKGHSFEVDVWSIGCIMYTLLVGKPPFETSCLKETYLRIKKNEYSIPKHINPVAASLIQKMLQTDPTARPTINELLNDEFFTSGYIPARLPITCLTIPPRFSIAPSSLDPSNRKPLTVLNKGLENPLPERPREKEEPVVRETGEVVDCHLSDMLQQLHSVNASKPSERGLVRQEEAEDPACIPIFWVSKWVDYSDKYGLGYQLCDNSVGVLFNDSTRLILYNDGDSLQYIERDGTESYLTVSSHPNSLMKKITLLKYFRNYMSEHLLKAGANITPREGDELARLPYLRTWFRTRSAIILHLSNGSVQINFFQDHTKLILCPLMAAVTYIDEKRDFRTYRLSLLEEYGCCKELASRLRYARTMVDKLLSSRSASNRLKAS

Row | Variant | effect of a mutation on the interaction
1 | S869A | disrupting interaction

Variants of: B1
Conditions: with plk1_human PLK1, P53350
Remark: another data set of the same source

Row | Variant | effect of a mutation on the interaction
2 | S750A | decreasing interaction

Reference: IntAct's records for PubMed 21642957
